Positions count from the first letter of the chain named. Names and notes keep the numbering of the source. Each block holds one binder with its values, some of them ahead of it.
Columns and labels:
Test in all cases: SPR; cytokine immobilised on ProteOn GLH sensor chip by amine coupling (9,000-14,000 RU); S100P (wild type or mutant) as analyte, 62 nM-16 µM; 25 °C; 10 mM HEPES, 150 mM NaCl, 1 mM CaCl2, 0.05% TWEEN 20, pH 7.4; heterogeneous ligand model (two ligand populations), one-site model for IL-13; values averaged over analyte concentrations (n = 3-5)
Conditions in all cases: both partners purified
[1] = target: T1, Interleukin-21 (human, UniProt Q9HBE4 25-162)
T1 construct: Interleukin-21, human, UniProt Q9HBE4; see the manufacturer's catalogue number; also called IL-21; source: bought: PeproTech (source E. coli)

[2] = target: T2, Prolactin (human, UniProt P01236 29-227)
T2 construct: Prolactin, human, UniProt P01236; see the manufacturer's catalogue number; also called PRL; source: bought: PeproTech (source E. coli)
T2 sequence (looked up): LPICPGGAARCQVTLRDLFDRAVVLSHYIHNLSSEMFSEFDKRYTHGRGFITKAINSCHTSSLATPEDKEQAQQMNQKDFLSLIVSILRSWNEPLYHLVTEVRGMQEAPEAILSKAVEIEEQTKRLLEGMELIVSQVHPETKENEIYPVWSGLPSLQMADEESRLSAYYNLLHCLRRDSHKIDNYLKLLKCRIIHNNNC

[3] = target: T3, Interleukin-24 (human, UniProt Q13007 52-206)
T3 construct: Interleukin-24, human, UniProt Q13007; see the manufacturer's catalogue number; also called IL-24; source: bought: PeproTech (source CHO)
T3 sequence (looked up): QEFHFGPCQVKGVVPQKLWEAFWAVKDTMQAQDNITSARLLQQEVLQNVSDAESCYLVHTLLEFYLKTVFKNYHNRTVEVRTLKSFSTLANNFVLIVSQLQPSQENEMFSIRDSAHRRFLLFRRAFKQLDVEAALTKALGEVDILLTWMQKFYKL

[4] = target: T1, Interleukin-21; remark: listed apart in the source
[5] = target: T4, Interleukin-26 (human, UniProt Q9NPH9 22-171)
T4 construct: Interleukin-26, human, UniProt Q9NPH9; see the manufacturer's catalogue number; also called IL-26; source: bought: R&D Systems (source E. coli)
T4 sequence (looked up): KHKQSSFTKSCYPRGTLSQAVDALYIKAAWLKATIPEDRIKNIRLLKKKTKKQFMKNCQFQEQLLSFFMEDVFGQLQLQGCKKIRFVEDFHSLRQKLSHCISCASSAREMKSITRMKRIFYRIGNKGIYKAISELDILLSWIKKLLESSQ

[6] = target: T5, Leptin (human, UniProt P41159 22-167)
T5 construct: Leptin, human, UniProt P41159; see the manufacturer's catalogue number; source: bought: PeproTech (source E. coli)

[7] = target: T6, Somatotropin (human, UniProt P01241 27-217)
T6 construct: Somatotropin (growth hormone), human, UniProt P01241; see the manufacturer's catalogue number; also called GH; growth hormone; source: bought: PeproTech (source E. coli)
T6 sequence (P01241 27-217): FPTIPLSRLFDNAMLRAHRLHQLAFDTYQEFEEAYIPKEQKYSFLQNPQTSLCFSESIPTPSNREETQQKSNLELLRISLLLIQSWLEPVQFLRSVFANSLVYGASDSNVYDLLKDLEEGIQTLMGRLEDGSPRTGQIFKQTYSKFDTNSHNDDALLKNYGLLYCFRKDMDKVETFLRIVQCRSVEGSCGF

T1 sequence (Q9HBE4 25-162): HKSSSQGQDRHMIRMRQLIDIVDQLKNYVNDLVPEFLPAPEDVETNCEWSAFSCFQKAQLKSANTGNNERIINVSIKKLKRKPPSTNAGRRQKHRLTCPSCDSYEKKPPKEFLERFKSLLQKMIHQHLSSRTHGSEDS
T5 sequence (P41159 22-167): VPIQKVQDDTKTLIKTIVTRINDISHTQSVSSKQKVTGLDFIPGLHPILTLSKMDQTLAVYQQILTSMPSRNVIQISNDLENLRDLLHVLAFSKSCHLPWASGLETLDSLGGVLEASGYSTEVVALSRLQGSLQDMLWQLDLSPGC

Kd1 (heterogeneous ligand model, population 1) [1]: 272 nM
Kd2 (heterogeneous ligand model, population 2) [1]: 285 nM
kd1 (heterogeneous ligand model, population 1) [1]: 0.000928 s⁻¹
kd2 (heterogeneous ligand model, population 2) [1]: 0.0126 s⁻¹
Kd1 (heterogeneous ligand model, population 1) [2]: 54.6 nM
Kd2 (heterogeneous ligand model, population 2) [2]: 906 nM
kd1 (heterogeneous ligand model, population 1) [2]: 0.000981 s⁻¹
kd2 (heterogeneous ligand model, population 2) [2]: 0.0103 s⁻¹
Kd1 (heterogeneous ligand model, population 1) [3]: 158 nM
Kd2 (heterogeneous ligand model, population 2) [3]: 918 nM
kd1 (heterogeneous ligand model, population 1) [3]: 0.000483 s⁻¹
kd2 (heterogeneous ligand model, population 2) [3]: 0.00794 s⁻¹
B1: Human S100P protein (recombinant, Ca^2+-loaded) (natural protein)
chain: MTELETAMGMIIDVFSRYSGSEGSTQTLTKGELKVLMEKELPGFLQSGKDKDAVDKLLKDLDANGDAQVDFSEFIVFVAAITSACHKYFEKAGLK
notes: S100P protein, human, recombinant; probably the whole 95-residue protein (surmise); also called wild-type S100P; WT S100P; source: E. coli, prepared as previously described [28]

Kd1 (heterogeneous ligand model, population 1) [4]: 401 nM
Kd2 (heterogeneous ligand model, population 2; column head printed as Kd1) [4]: 950 nM
Kd [5]: > 100 µM
Kd1 (heterogeneous ligand model, population 1) [6]: 4.37 µM
Kd2 (heterogeneous ligand model, population 2; column head printed as Kd1) [6]: 35.7 µM
Kd1 (heterogeneous ligand model, population 1) [7]: 29.2 µM
Kd2 (heterogeneous ligand model, population 2; column head printed as Kd1) [7]: 138 µM
B2: Human S100P mutant F89A (natural protein)
chain: B1 chain with F89A
notes: S100P protein, human, recombinant, with F89A; source: E. coli, prepared as previously described [28]

Kd [4]: > 100 µM
Kd [5]: > 100 µM
Kd [6]: > 100 µM
Kd [7]: > 100 µM
B3: Human S100P mutant Δ42–47 (lacks PGFLQS sequence in the 'hinge') (natural protein)
chain: MTELETAMGMIIDVFSRYSGSEGSTQTLTKGELKVLMEKELGKDKDAVDKLLKDLDANGDAQVDFSEFIVFVAAITSACHKYFEKAGLK
notes: S100P protein, human, recombinant, with residues 42-47 (PGFLQS) deleted; source: E. coli, prepared as previously described [28]

Source: PMC9569990 (International Journal of Molecular Sciences, 2022)
